Reference: IntAct's records for PubMed 31515488

B1: Glycine N-methyltransferase (Homo sapiens), Q14749 (parent)
chain: MVDSVYRTRSLGVAAEGLPDQYADGEAARVWQLYIGDTRSRTAEYKAWLLGLLRQHGCQRVLDVACGTGVDSIMLVEEGFSVTSVDASDKMLKYALKERWNRRHEPAFDKWVIEEANWMTLDKDVPQSAEGGFDAVICLGNSFAHLPDCKGDQSEHRLALKNIASMVRAGGLLVIDHRNYDHILSTGCAPPGKNIYYKSDLTKDVTTSVLIVNNKAHMVTLDYTVQVPGAGQDGSPGLSKFRLSYYPHCLASFTELLQAAFGGKCQHSVLGDFKPYKPGQTYIPCYFIHVLKRTD
B2: Tuftelin-interacting protein 11 (Homo sapiens), Q9UBB9 (parent)
chain: MSLSHLYRDGEGRIDDDDDERENFEITDWDLQNEFNPNRQRHWQTKEEATYGVWAERDSDDERPSFGGKRARDYSAPVNFISAGLKKGAAEEAELEDSDDEEKPVKQDDFPKDFGPRKLKTGGNFKPSQKGFAGGTKSFMDFGSWERHTKGIGQKLLQKMGYVPGRGLGKNAQGIINPIEAKQRKGKGAVGAYGSERTTQSMQDFPVVDSEEEAEEEFQKELSQWRKDPSGSKKKPKYSYKTVEELKAKGRISKKLTAPQKELSQVKVIDMTGREQKVYYSYSQISHKHNVPDDGLPLQSQQLPQSGKEAKAPGFALPELEHNLQLLIDLTEQEIIQNDRQLQYERDMVVNLFHELEKMTEVLDHEERVISNLSKVLEMVEECERRMQPDCSNPLTLDECARIFETLQDKYYEEYRMSDRVDLAVAIVYPLMKEYFKEWDPLKDCTYGTEIISKWKSLLENDQLLSHGGQDLSADAFHRLIWEVWMPFVRNIVTQWQPRNCDPMVDFLDSWVHIIPVWILDNILDQLIFPKLQKEVENWNPLTDTVPIHSWIHPWLPLMQARLEPLYSPIRSKLSSALQKWHPSDSSAKLILQPWKDVFTPGSWEAFMVKNIVPKLGMCLGELVINPHQQHMDAFYWVIDWEGMISVSSLVGLLEKHFFPKWLQVLCSWLSNSPNYEEITKWYLGWKSMFSDQVLAHPSVKDKFNEALDIMNRAVSSNVGAYMQPGARENIAYLTHTERRKDFQYEAMQERREAENMAQRGIGVAASSVPMNFKDLIETKAEEHNIVFMPVIGKRHEGKQLYTFGRIVIYIDRGVVFVQGEKTWVPTSLQSLIDMAK
partner: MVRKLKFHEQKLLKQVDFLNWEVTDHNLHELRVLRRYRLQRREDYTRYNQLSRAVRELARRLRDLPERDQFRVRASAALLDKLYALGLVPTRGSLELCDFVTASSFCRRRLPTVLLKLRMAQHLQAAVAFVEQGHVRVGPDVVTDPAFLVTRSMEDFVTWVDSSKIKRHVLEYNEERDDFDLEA
B3: IQ motif and ubiquitin-like domain-containing protein (Homo sapiens), Q8NA54 (parent)
chain: MSNQQEKYEAQNIVNSTEESDDAFDTVTIPVPSEEPQESDQTEEHESGIEQFSESHAIHVEEQSDQSFSSLEPDNEQLMEEVISPRQVSYTPQHHEKQYAMQRPNDDSLAFLDKIKSVKESLQESVEDSLATVKVVLIPVGQEIVIPFKVDTILKYLKDHFSHLLGIPHSVLQIRYSGKILKNNETLVQHGVKPQEIVQVEIFSTNPDLYPVRRIDGLTDVSQIITVTVQTGLDQYQQVPVEIVKSDFHKPFLGGFRHKVTGVEYHNAGTQTVPKRIPERLSIFCRDTQTVFQKKNLQQTTNTTSTQMTNIGVYVSNMTDKLVTPGKYFSAAEYHAQRLKAVIVIQTYYRQWHAKIFVENLRRQKSLRLEWETQQELRKIREKEEWIKLDYHRRHNPKTNEDFEFLYNALEFWRQEELTRINQSFTGAERKAALCELLEKETQIIASIGRHRYIAYMANQEAAIQAFLDKCSAPKIWRTPNGKTIEMDTQFTIRARELQNIYKCIMLKNISQDERLDVLLTLKHTVKEHECKLTQEILELIDREVDLMMRGVKHHNLEGLRKRIATLFFHYIKTPLFNPEVAKYLKVPQDPLKFYKKIYFCHSCQLYLPSTEFSVSSTSRRIYRCRNCINLQNEAQKRESFLKYKCLLQQLYYTEADYEDDSKIAFLMQLQDIQYLTENIWASQSVLSACDNLSDLVMVRWNKSLEWSPWNCILLTKDEAAAHLKLTSIEEGYERSFIHKIKHKHILAKNYFSQVPVLASFILDDGEIDEIRWKYHSDTTPKIIESQRPPH
partner: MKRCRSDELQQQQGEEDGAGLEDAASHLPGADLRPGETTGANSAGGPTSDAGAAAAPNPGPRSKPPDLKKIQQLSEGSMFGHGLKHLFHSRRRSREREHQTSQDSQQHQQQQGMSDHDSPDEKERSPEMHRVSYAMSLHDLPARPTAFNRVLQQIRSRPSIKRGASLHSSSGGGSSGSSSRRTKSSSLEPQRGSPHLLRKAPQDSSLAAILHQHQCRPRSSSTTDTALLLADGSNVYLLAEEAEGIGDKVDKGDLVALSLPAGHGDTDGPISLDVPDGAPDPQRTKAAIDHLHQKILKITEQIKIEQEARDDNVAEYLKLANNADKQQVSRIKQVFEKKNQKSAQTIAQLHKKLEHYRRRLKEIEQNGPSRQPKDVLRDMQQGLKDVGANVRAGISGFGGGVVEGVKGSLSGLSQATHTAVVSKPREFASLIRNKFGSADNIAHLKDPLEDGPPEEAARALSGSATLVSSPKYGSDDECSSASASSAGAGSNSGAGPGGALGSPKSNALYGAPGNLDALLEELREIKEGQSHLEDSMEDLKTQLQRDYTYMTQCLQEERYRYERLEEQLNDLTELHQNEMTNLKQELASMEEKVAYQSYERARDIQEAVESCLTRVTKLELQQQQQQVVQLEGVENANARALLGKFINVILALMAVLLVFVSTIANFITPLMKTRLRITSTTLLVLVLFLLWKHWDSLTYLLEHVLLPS
B4: Break repair meiotic recombinase recruitment factor 1 (Homo sapiens), Q0VDD7 (parent)
chain: MTKRKKLRTSGEGLCPPKPLKNPRLGDFYGDPQSSMLGCLHHPEEPEGKLGPVPSTQQHGEEPGKAVSSSPDEETGSPCRLLRQPEKEPAPLPPSQNSFGRFVPQFAKSRKTVTRKEEMKDEDRGSGAFSLETIAESSAQSPGCQLLVETLGVPLQEATELGDPTQADSARPEQSSQSPVQAVPGSGDSQPDDPPDRGTGLSASQRASQDHLSEQGADDSKPETDRVPGDGGQKEHLPSIDSEGEKPDRGAPQEGGAQRTAGAGLPGGPQEEGDGVPCTPASAPTSGPAPGLGPASWCLEPGSVAQGSPDPQQTPSRMGREGEGTHSSLGCSSLGMVVIADLSTDPTELEERALEVAGPDGQASAISPASPRRKAADGGHRRALPGCTSLTGETTGESGEAGQDGKPPGDVLVGPTASLALAPGSGESMMGAGDSGHASPDTGPCVNQKQEPGPAQEEAELGGQNLERDLEGFRVSPQASVVLEHREIADDPLQEPGAQQGIPDTTSELAGQRDHLPHSADQGTWADSLAVELDFLLDSQIQDALDASDFEAPPEQLFPSGNKPGPCWPGPSSHANGDPVAVAKAQPRTFVGIQASEASRMEDATNVVRGLIVELSNLNRLIMGTHRDLEAFKRLNYRKTKLGGKAPLPYPSKGPGNIPRGDPPWREL
partner: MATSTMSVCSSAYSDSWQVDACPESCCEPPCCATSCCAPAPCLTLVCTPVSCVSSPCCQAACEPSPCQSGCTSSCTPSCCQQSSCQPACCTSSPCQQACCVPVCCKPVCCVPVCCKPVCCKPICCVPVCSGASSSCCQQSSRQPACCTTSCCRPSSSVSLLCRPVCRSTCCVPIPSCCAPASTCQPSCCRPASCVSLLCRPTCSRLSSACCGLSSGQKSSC
B5: Syntenin-2 (Homo sapiens), Q9H190 (parent)
chain: MSSLYPSLEDLKVDQAIQAQVRASPKMPALPVQATAISPPPVLYPNLAELENYMGLSLSSQEVQESLLQIPEGDSTAVSGPGPGQMVAPVTGYSLGVRRAEIKPGVREIHLCKDERGKTGLRLRKVDQGLFVQLVQANTPASLVGLRFGDQLLQIDGRDCAGWSSHKAHQVVKKASGDKIVVVVRDRPFQRTVTMHKDSMGHVGFVIKKGKIVSLVKGSSAARNGLLTNHYVCEVDGQNVIGLKDKKIMEILATAGNVVTLTIIPSVIYEHMVKKLPPVLLHHTMDHSIPDA

Variants of: B1
Settings: with ntaq1_human NTAQ1, Q96HA8

Row | Variant | effect of a mutation on the interaction
1 | I211T | with no effect

Variants of: B1
Settings: with arrc_human ARR3, P36575
Sequence of arrc_human ARR3, P36575 (P36575 whole entry): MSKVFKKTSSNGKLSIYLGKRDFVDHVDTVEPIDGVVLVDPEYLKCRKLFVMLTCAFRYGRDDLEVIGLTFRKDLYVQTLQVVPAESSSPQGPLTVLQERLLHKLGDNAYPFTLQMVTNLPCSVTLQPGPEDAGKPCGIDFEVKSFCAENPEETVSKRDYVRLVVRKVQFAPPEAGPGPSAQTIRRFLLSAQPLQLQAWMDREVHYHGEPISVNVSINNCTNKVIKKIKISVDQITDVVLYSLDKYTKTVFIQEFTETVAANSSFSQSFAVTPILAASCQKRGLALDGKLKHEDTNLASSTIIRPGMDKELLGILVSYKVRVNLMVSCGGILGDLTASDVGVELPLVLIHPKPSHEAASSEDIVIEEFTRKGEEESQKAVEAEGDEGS

Row | Variant | effect of a mutation on the interaction
2 | I211T | disrupting interaction strength

Variants of: B1
Settings: with arrb1_human ARRB1, P49407
Sequence of arrb1_human ARRB1, P49407 (P49407 whole entry): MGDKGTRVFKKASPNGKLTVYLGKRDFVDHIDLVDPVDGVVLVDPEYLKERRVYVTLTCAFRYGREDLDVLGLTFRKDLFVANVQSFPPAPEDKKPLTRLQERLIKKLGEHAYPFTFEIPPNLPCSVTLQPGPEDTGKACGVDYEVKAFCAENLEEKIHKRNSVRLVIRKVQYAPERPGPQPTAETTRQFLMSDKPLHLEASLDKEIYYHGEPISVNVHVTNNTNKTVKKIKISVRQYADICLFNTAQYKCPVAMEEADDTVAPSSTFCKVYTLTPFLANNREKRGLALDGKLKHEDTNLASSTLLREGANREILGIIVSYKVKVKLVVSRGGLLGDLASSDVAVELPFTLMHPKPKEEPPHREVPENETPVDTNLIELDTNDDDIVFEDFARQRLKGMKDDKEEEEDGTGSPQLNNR

Row | Variant | effect of a mutation on the interaction
3 | I211T | disrupting interaction strength

Variants of: B2
Settings: with imp3_human IMP3, Q9NV31

Row | Variant | effect of a mutation on the interaction
4 | R8Q | with no effect
5 | S688L | with no effect

Variants of: B3
Settings: with tmcc2_human TMCC2, O75069

Row | Variant | effect of a mutation on the interaction
6 | I501F | disrupting interaction strength
7 | V126M | with no effect

Variants of: B4
Settings: with kr103_human KRTAP10-3, P60369

Row | Variant | effect of a mutation on the interaction
8 | L155F | with no effect
9 | Q500R | with no effect
10 | G267R | with no effect
11 | N576S | with no effect

Variants of: B5
Settings: with zch10_human ZCCHC10, Q8TBK6
Sequence of zch10_human ZCCHC10, Q8TBK6 (Q8TBK6 whole entry): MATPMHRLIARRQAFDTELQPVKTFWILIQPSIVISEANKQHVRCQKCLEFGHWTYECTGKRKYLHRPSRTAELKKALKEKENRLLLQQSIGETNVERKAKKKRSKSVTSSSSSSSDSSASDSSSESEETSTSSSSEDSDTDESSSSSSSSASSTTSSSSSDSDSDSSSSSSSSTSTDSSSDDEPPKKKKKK

Row | Variant | effect of a mutation on the interaction
12 | G242R | disrupting interaction strength
13 | G225R | disrupting interaction strength
14 | V182M | with no effect

Variants of: B5
Settings: with t23o_human TDO2, P48775
Sequence of t23o_human TDO2, P48775 (P48775 whole entry, looked up): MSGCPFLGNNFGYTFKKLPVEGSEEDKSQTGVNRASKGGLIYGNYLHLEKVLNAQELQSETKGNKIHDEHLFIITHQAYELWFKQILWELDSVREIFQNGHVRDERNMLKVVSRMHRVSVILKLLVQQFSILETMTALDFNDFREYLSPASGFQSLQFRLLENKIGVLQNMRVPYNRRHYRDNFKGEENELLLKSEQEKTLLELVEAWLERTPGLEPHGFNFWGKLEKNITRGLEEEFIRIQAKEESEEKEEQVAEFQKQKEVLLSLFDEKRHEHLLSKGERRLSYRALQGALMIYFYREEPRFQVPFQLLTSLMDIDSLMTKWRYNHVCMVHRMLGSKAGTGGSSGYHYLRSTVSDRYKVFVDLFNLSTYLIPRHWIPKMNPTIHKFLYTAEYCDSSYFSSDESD

Row | Variant | effect of a mutation on the interaction
15 | G242R | disrupting interaction strength
16 | G225R | disrupting interaction strength
17 | V182M | with no effect

Variants of: B5
Settings: with lyar_human LYAR

Row | Variant | effect of a mutation on the interaction
18 | G242R | disrupting interaction strength
19 | G225R | disrupting interaction strength
20 | V182M | with no effect

Variants of: B5
Settings: with ytdc1_human YTHDC1, Q96MU7

Row | Variant | effect of a mutation on the interaction
21 | G242R | disrupting interaction strength
22 | G225R | disrupting interaction strength
23 | V182M | disrupting interaction strength

Variants of: B5
Settings: with FAM133A

Row | Variant | effect of a mutation on the interaction
24 | G242R | disrupting interaction strength
25 | G225R | disrupting interaction strength
26 | V182M | with no effect
